Changes are numbered by the printed parent chain.
Assays:
GST-ABI5 [1] = target: T1, GST-ABI5 (Arabidopsis thaliana, UniProt Q9SJN0 1-442); test: EMSA
T1 sequence: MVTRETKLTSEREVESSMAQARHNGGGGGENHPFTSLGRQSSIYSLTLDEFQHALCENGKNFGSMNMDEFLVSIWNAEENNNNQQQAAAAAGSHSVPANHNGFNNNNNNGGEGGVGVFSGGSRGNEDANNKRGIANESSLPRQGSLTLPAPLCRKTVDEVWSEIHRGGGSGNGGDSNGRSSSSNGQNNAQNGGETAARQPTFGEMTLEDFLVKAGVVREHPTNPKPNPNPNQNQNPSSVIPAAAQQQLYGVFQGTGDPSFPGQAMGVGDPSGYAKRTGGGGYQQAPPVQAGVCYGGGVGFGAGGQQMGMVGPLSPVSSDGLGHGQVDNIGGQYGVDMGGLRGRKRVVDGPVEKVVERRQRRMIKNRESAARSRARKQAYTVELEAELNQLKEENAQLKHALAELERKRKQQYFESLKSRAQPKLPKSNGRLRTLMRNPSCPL

BBX31 (miP1a) = target: T2, BBX31 (miP1a) (Arabidopsis thaliana, UniProt Q9LRM4 1-121); test: EMSA
T2 sequence: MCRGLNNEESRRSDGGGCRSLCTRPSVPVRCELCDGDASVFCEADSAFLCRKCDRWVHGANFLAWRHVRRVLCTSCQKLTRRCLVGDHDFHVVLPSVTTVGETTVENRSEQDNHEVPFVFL

BBX30 (miP1b) = target: T3, BBX30 (miP1b) (Arabidopsis thaliana, UniProt Q1G3I2 1-117); test: EMSA
T3 sequence: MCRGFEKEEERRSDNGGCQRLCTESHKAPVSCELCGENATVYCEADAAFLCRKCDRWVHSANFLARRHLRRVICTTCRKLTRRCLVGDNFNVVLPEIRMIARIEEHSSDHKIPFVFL

GST-ABI5 [2] = target: T4, GST-ABI5 (Arabidopsis thaliana, UniProt Q9SJN0 1-442); test: pull-down
T4 sequence: T1 sequence

B1: BBX30 promoter probe (dsDNA)
DNA 1: GTCAATATTTTTCCACGTGTACAACCAGTTTA
DNA 2: TAAACTGGTTGTACACGTGGAAAAATATTGAC
B1: binds (GST-ABI5 [1]).

B2: mutBBX30 probe (dsDNA)
DNA 1: B1 DNA 1 with C16A, G17A, T18A, G19A
DNA 2: B1 DNA 2 with C14T, A15T, C16T, G17T
B2: no binding (GST-ABI5 [1]).

B3: EM6 promoter probe (dsDNA)
DNA 1: AATAAAGTCAGACACGTGGCATGTCACCAA
DNA 2: TTGGTGACATGCCACGTGTCTGACTTTATT
B3: no binding (BBX31 (miP1a)); no binding (BBX30 (miP1b)).

B4: His-BBX30 (natural protein)
chain: T3 sequence
B4: binds (GST-ABI5 [2]).

B5: ABI5 promoter probe (dsDNA)
DNA 1: GCAAGAAACAGAAGAGAGACACGTGCAGGACACGTGTCGTCCGCAGCCGAACGGA
DNA 2: TCCGTTCGGCTGCGGACGACACGTGTCCTGCACGTGTCTCTCTTCTGTTTCTTGC
B5: no binding (BBX31 (miP1a)); no binding (BBX30 (miP1b)).

B6: His-BBX31 (natural protein)
chain: T2 sequence
B6: binds (GST-ABI5 [2]).

B7: BBX31 promoter probe (dsDNA)
DNA 1: AAATAACAGGGCAAGATTCATCCACGTGTCCAACAACAACACAACACAAA
DNA 2: TTTGTGTTGTGTTGTTGTTGGACACGTGGATGAATCTTGCCCTGTTATTT
B7: binds (GST-ABI5 [1]).

B8: mutBBX31 probe (dsDNA)
DNA 1: B7 DNA 1 with C23A, A24C, T27G
DNA 2: B7 DNA 2 with A24C, T27G, G28T
B8: no binding (GST-ABI5 [1]).

— publication doi:10.1101/2022.06.21.497044 (bioRxiv, 2022)
